Assay results: PMC2045701, “Confocal fluorescence resonance energy transfer microscopy study of protein-protein interactions of lens crystallins in living cells” (Molecular Vision, 2007)

Molecular target: GFP-αA-crystallin (UniProt P02489 2-173)
Assay: cell-based or functional assay

Chain of GFP-αA-crystallin (P02489 2-173): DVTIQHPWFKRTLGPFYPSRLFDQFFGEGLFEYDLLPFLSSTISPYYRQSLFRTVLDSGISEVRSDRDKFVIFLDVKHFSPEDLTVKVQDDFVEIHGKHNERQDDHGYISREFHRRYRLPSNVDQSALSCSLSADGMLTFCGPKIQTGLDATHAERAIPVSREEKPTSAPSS

B1: RED-αB-crystallin (natural protein, UniProt P02511 2-175, looked up)
chain: DIAIHHPWIRRPFFPFHSPSRLFDQFFGEHLLESDLFPTSTSLSPFYLRPPSFLRAPSWFDTGLSEMRLEKDRFSVNLDVKHFSPEELKVKVLGDVIEVHGKHEERQDEHGFISREFHRKYRIPADVDPLTITSSLSSDGVLTVNGPRKQVSGPERTIPITREEKPAVTAAPKK
  percentage of HeLa cells with protein aggregates, cotransfection of GFP-αA- and RED-αB-crystallin against RED-αB-crystallin alone (confocal microscopy): > 4 fold
